Results reported in PMC9443353.

Legend:
[1] = target: T1, DENV4 NS1 (Dengue virus serotype 4) (UniProt Q2YHF0); test: filter binding with qPCR; conditions: ELONA: borate buffer (60 mM in selection), 37 °C, 30 min, pH not stated; specificity: selection buffer, filtration, qPCR; FET: human serum as gate electrolyte …
T1 sequence: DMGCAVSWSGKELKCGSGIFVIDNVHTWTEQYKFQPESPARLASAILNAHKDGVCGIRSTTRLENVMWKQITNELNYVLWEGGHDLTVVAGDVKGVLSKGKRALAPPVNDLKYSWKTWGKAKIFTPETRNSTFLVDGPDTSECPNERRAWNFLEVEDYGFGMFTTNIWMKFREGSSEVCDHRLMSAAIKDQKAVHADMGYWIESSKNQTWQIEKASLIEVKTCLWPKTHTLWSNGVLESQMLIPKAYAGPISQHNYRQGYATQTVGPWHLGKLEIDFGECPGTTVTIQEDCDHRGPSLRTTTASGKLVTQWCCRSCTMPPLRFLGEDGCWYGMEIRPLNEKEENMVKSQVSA

[2] = target: T2, DENV2 NS1 (Dengue virus serotype 2) (UniProt Q9WDA6); test: filter binding with qPCR
T2 sequence: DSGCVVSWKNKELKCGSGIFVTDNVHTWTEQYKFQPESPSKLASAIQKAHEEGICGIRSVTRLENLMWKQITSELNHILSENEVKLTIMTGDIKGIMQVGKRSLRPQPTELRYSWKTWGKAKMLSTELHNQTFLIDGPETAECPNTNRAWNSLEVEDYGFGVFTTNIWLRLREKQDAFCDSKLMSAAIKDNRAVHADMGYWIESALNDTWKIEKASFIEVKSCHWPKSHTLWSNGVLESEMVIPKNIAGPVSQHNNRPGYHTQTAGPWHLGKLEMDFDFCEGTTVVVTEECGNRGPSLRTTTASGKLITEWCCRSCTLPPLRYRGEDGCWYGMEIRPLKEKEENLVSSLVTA

## CTTCTGCCCGCCTCCTTCCGGGCCCCGGGGGGTGTCCAGGCCCATGCGTCGTCCGCGGGGAGACGAGATAGGCGGACACT [ZIKV60]
[1]
  binding signal (ratio ZIKV NS1/DENV4 NS1 bound): 14.8
[2]
  binding signal (ratio ZIKV NS1/DENV2 NS1 bound): 14.8
